According to patent US7364741B1, “Peptides of human Papilloma virus for use in human T cell response inducing compositions” (priority 1992, dated 2008):

Tests used:
[1] = target: T1, HLA-A2.1 (Homo sapiens, UniProt P04439, D140Y/D185E/D98H/E176V/E277Q/G131W/G231S/I119V/I121R/I166T/I218V/L300P/L318F/N151K/N90K/P208A/P217A/Q86G/Q94H/R138H/R169H/T345S); assay type: cell-based; settings: HPV16 peptides, 200 μg/ml peptide, 16 hours, 174CEM.T2 cells
T1 construct: endogenous in cells; host or cells: 174CEM.T2
Description: Of all peptides a dilution of 1 mg/ml in 0.9% NaCl was made.
174CEM.T2 cells were cultured in Iscovel's modified Dulbecco's medium (Biochrom KG Seromed Berlin, Germany: F0465) supplemented with 100 IU/ml penicillin (Biocades Pharma, Leiderdorp, The Netherlands), 100 μg/ml kanamycin (Sigma St. Louis, USA:K-0254), 2 mM glutamine (ICN Biomedicals Inc. Costa Mesa, Calif., USA:15-801-55) and 10% fetal calf serum (FCS, Hyclone Laboratories Inc. Logan, Utah, USA:A-1115-L). Cells were cultured at a density of 2.5×10^5/ml during 3 days at 37° C., 5% CO2 in humified air.
174CEM.T2 cells were washed twice in culture medium without FCS and put in serum-free culture medium to a density of 2×10^6 cells/ml. Of this suspension 40 μl was put into a V bottomed 96 well plate (Greiner GmbH, Frickenhausen, Germany: 651101) together with 10 μl of the individual peptide dilutions (of 1 mg/ml). The end concentration is 200 μg/ml peptide with 8×10^4 174CEM.T2 cells. This solution was gently agitated for 3 minutes after which an incubation time of 16 hours at 37° C., 5% CO2 in humified air took place. Then cells were washed once with 100 μl 0.9% NaCl, 0.5% bovine serum albumin (Sigma St. Louis, USA: A-7409), 0.02% NaN3 (Merck Darmstadt, Germany:822335). After a centrifuge round of 1200 rpm the pellet was resuspended in 50 μl of saturating amounts of HLA-A2.1 specific mouse monoclonal antibody BB7.2 for 30 minutes at 4° C. Then cells were washed twice and incubated for 30 minutes with F(ab)2 fragments of goat anti-mouse IgG that had been conjugated with […] (Tago Inc Burlingame, Calif., USA: 4350) in a dilution of 1:40 and a total volume of 25 μl.
After the last incubation, cells were washed twice and fluorescence was measured at 488 nanometer on a FACScan flow-cytometer (Becton Dickinson, Franklin Lakes, N.J., USA).
The 174CEM.T2 cell line expresses “empty” and unstable HLA-A2.1 molecules that can be stabilized when a peptide is binding to the peptide presenting groove of these molecules. […] This leads to an increase in cell surface expression of the HLA-A2.1 molecule.
With background fluorescence level (without adding peptides) set on a Fluorescence Index level of 0, binding of a peptide was regarded positive when the level of fluorescence was ≧0.5.

[2] = tested on: MLDLQPETT-sensitized T2 cells; test: In vitro induction of primary CTL response and cytotoxicity assay on peptide-sensitized T2 cells; assay type: cell-based, human; settings: PBL of HLA-A2.1 donor stimulated with 80 μg/ml peptide; cytotoxicity assay on day 49; background: T2 with irrelevant peptide ATELQTTIH
Description: The expression of HLA-A2.1 on 174CEM.T2 cells (T2) is increased by incubating T2 cells in medium containing relevant peptide. T2 cells will present the relevant peptide bound to HLA-A2.1 in high amount and therefore are good antigen presenting cells (APC). In the response inducing method described below the T2 cell line is used as APC and post-Ficoll mononuclear cells are used as responder cells.
T2 cells in a concentration of 2×10^6 cells per ml were incubated for 13 h at 37° C. in a T 25 flask (Becton Dickinson, Falcon, Plymouth Engeland cat.nr. 3013) in serum-free IMDM (=Iscoves Modified Dulbecco's Medium: Biochrom KG, Seromed Berlin, Germany, cat.nr. F0465) with glutamine (2 mM, ICN Biochemicals Inc., Costa Meisa, USA, cat.nr. 15-801-55), antibiotics (100 IU/ml penicilline (Brocades Pharma, Leiderdorp, The Netherlands, 100 μg/ml kanamycine (Sigma, St. Louis, USA, K-0245)) and the selected peptide […] (=JWK3; SEQ ID NO:15) in a concentration of 80 μg/ml.
These incubated T2 cells were spun down and subsequently treated in a density of 20×10^6 cells/ml with Mitomycine C (50 μg/ml) in serum-free RPMI (Gibco Paislan, Scotland, cat.nr. 041-02409) medium for 1 h at 37° C. Hereafter the T2 cells were washed three times in RPMI. […]

**Q.** For “MLDLQPETT [HPV16 peptide 13, residues 12-20 of HPV16 protein E7]”, which “MF (mean HLA-A2.1 fluorescence)” value [1] is on record?
**A.** Its value is 217.6.

**Q.** What about the “FI (Fluorescence Index)” value ([1]; background set on 0, binding positive when ≧0.5) of the same sequence?
**A.** Its value is 2.3.

**Q.** And the “specificity of killing by peptide-induced bulk CTL culture” value [2]?
**A.** Its value is “seemed to be specific for killing MLDLQPETT (SEQ ID NO:15)-sensitized T2 cells”.
